Results published in the supplement of paper PMC10126150.
± gives the standard deviation of the averaged measurements.

Tested on: ATP
Assay: switch fluorescence ratio, 500 uM ATP over buffer (Cy3 cluster intensity, sum of 5 cycles each) (fold (ratio)); higher = stronger signal-on switching upon ATP binding; sequences stand for … in TCGTCGGCAGCGTCAGATGTGTATAAGAGACAGTTTTTTTTTTTTTTTTTTTTTTTTT…TC
Details: aptamer strand: ATP DNA aptamer (quencher-CACCTGGGGGAGTATTGCGGAGGAAGG + anchor), 100 nM annealed; ATP concentration: 500 uM
Outline: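 The fluorescence ratio divides summed target-cycle Cy3 intensity by summed buffer-cycle Cy3 intensity for each cluster and is averaged per switch-domain sequence. Cy3-labelled switching-strand clusters on a modified Illumina MiSeq flow-cell were annealed to 100 nM quencher-labelled ATP aptamer, then imaged in selection buffer and again after 15 min with 500 uM ATP at 22 °C. Five such cycles were run, with NaOH stripping and re-annealing between them, and clusters outside 100-1000 RFU were excluded.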
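Also: ATP exposure 15 min at 22 °C before imaging.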

Sequence	switch fluorescence ratio
ATATATGAAA	0.998 ± 0.024
ATATATGTAA	0.994 ± 0.023
ATATATGTAC	1.085 ± 0.0016
ATATATTAAA	0.981 ± 0.03
ATATCATGTT	0.995 ± 0.036
ATATCCGGTT	1 ± 0.041
ATATCCGTCA	1.05 ± 0.051
ATATCCTTCA	1.35 ± 0.43
ATATCGGTGT	0.991 ± 0.029
ATATCGTATT	1 ± 0.013
ATATCTAGTT	0.989 ± 0.084
ATATCTATGG	0.994 ± 0.025
ATATCTGCTT	0.978 ± 0.035
ATATGACTTT	1.01 ± 0.052
ATATGAGGGA	1.01 ± 0.026
ATATGAGTTT	1.01 ± 0.017
ATATGATATC	1.03 ± 0.062
ATATGCAGGG	0.993 ± 0.00024
ATATGCGATG	0.97 ± 0.051
ATATGCGGGC	1.02 ± 0.05
ATATGCGTCG	0.95 ± 0.027
ATATGGACGC	1.01 ± 0.046
ATATGGCACT	1.008 ± 0.0034

Sequence	switch fluorescence ratio
ATATGGGAAG	1 ± 0.048
ATATGGGAGG	0.969 ± 0.016
ATATGGGGAC	1.01 ± 0.024
ATATGTATCA	1.06 ± 0.033
ATATGTGGAG	0.987 ± 0.011
ATATTATCAA	1 ± 0.012
ATATTATTAA	0.975 ± 0.014
ATATTCGCAC	1.19 ± 0.063
ATATTCGCGG	1.01 ± 0.015
ATATTCTGAA	0.976 ± 0.017
ATATTGAAAT	1.01 ± 0.033
ATATTGAGCT	0.976 ± 0.022
ATATTGATAT	1.01 ± 0.021
ATATTGGAAG	1.011 ± 0.01
ATATTGGAAT	1.02 ± 0.024
ATATTGGGAG	0.99 ± 0.025
ATATTGGGGG	0.998 ± 0.025
ATATTGTCAT	0.962 ± 0.015
ATATTTATTG	0.998 ± 0.04
ATATTTGCTT	1 ± 0.025
ATATTTGTAT	1 ± 0.012
ATATTTGTCA	1.03 ± 0.022
ATCAAATATG	1.01 ± 0.008

Sequence	switch fluorescence ratio
ATCAAATGTA	0.981 ± 0.024
ATCAAGGACG	1.02 ± 0.05
ATCAATCCTT	1.03 ± 0.029
ATCAATGAAC	1.05 ± 0.018
ATCACAATCA	1.02 ± 0.023
ATCACACATT	1.02 ± 0.032
ATCACGTGAT	1.01 ± 0.023
ATCACTTGAC	1.104 ± 0.0078
ATCAGCGCGG	1.013 ± 0.0027
ATCAGGGCAA	1.26 ± 0.18
ATCATAATGT	0.983 ± 0.032
ATCATCTTCG	1.02 ± 0.015
ATCATGCGGG	0.99749 ± 7e-05
ATCATGGCAC	1.04 ± 0.025
ATCATGGCTT	1.03 ± 0.011
ATCATGGGGG	0.986 ± 0.022
ATCATGGTGC	1.13 ± 0.074
ATCATGTCTA	1.04 ± 0.047
ATCATGTTAT	0.986 ± 0.011
ATCATTCGGT	0.9964 ± 0.0074
ATCCAAGTAA	1.04 ± 0.021
ATCCCAGGTA	2.009 ± 0.0073
ATCCCGGGAT	1 ± 0.022

Sequence	switch fluorescence ratio
ATCCGAGGAG	1.05 ± 0.012
ATCCGATACG	1.18 ± 0.023
ATCCGCGTAG	2.17 ± 0.017
ATCCTCGGGA	1.01 ± 0.034
ATCCTTTAAC	1 ± 0.032
ATCCTTTCAG	0.995 ± 0.016
ATCGAAAAAC	1.01 ± 0.05
ATCGAAGGGA	0.985 ± 0.041
ATCGAATATT	0.983 ± 0.031
ATCGAGCATG	1.03 ± 0.051
ATCGAGTAGG	1.008 ± 0.005
ATCGATGAAT	0.995 ± 0.015
ATCGATTATC	0.988 ± 0.021
ATCGATTGAT	1.02 ± 0.011
ATCGATTTTA	0.978 ± 0.056
ATCGCATGGG	1.03 ± 0.013
ATCGCGGGCA	1.02 ± 0.027
ATCGCGGGGG	1.009 ± 0.0021
ATCGCGGTGC	1.64 ± 0.33
ATCGCTATGG	1.125 ± 0.0017
ATCGCTGGTA	1.02 ± 0.031
ATCGGAAAGC	1.07 ± 0.028
ATCGGAATTG	1.01 ± 0.015

Sequence	switch fluorescence ratio
ATCGGAGACA	0.9681 ± 0.0067
ATCGGAGGCA	1.0107 ± 0.00084
ATCGGCAGGC	1.22 ± 0.075
ATCGGCGGGG	0.995 ± 0.031
ATCGGGACGA	0.955 ± 0.0099
ATCGGGCGGG	1.02 ± 0.02
ATCGGGCTGC	1 ± 0.038
ATCGGGGAGG	1.01 ± 0.0081
ATCGGGGCAT	0.98 ± 0.059
ATCGGGGGAA	1.05 ± 0.062
ATCGGGTAAG	1.01 ± 0.024
ATCGGGTCCA	0.979 ± 0.028
ATCGGTGGGA	0.992 ± 0.0031
ATCGGTGTTG	1.02 ± 0.035
ATCGGTTTTG	1.01 ± 0.021
ATCGTACATA	1.12 ± 0.064
ATCGTATTAC	1.46 ± 0.041
ATCGTCCCTT	0.986 ± 0.022
ATCGTCGGGA	0.977 ± 0.02
ATCGTGCCGT	1.01 ± 0.041
ATCGTGGGTG	0.984 ± 0.015
ATCGTGTGAG	1.02 ± 0.015
ATCTAAAGTT	1.023 ± 0.0016

Sequence	switch fluorescence ratio
ATCTAACCGA	1.06 ± 0.026
ATCTAGGGTT	0.995 ± 0.022
ATCTATGGTT	0.9669 ± 0.0036
ATCTCAGTGT	0.971 ± 0.04
ATCTCGGTTG	1.019 ± 0.0085
ATCTCTCATA	1.01 ± 0.038
ATCTCTGAAG	0.995 ± 0.013
ATCTGGACTA	0.984 ± 0.033
ATCTGGATGG	0.996 ± 0.03
ATCTGGGGTA	0.972 ± 0.034
ATCTGTATCC	1.05 ± 0.04
ATCTGTGGTT	0.978 ± 0.023
ATCTTAGTTT	1 ± 0.025
ATCTTCAGGT	0.995 ± 0.0013
ATCTTCTAAG	1.02 ± 0.03
ATCTTCTTAG	0.977 ± 0.051
ATCTTTAAGT	0.993 ± 0.015
ATCTTTGGTG	1.03 ± 0.022
ATCTTTGTGT	1.01 ± 0.043
ATGAAAAGGG	1 ± 0.022
ATGAAAAGGT	0.976 ± 0.013
ATGAAAATCA	1.01 ± 0.019
ATGAAAATCC	1.03 ± 0.021

Sequence	switch fluorescence ratio
ATGAAAGGTT	0.975 ± 0.021
ATGAAATAGG	0.98 ± 0.031
ATGAAGAGCG	0.994 ± 0.015
ATGAAGAGGG	0.997 ± 0.045
ATGAAGTAAT	1 ± 0.023
ATGAAGTGAA	1 ± 0.034
ATGAATAAGG	0.983 ± 0.028
ATGAATATGC	1.04 ± 0.043
ATGAATGGGG	1.01 ± 0.072
ATGAATTGGT	1.01 ± 0.019
ATGAGACGTG	1.04 ± 0.037
ATGAGCATCT	0.996 ± 0.01
ATGAGGACCC	0.982 ± 0.022
ATGAGGAGGT	0.979 ± 0.0036
ATGAGGGGCT	0.986 ± 0.037
ATGAGGGGTT	0.995 ± 0.032
ATGAGGGTAG	1.02 ± 0.034
ATGAGGGTTC	0.981 ± 0.044
ATGAGGTGCG	0.972 ± 0.035
